Read-outs that look alike come from different tables or passages of the source.
T1: Human TROP2 Protein, His Tag (Acro Biosystems) (human, UniProt P09758 27-274)
T1 construct: not shown: His tag
T1 sequence (looked up): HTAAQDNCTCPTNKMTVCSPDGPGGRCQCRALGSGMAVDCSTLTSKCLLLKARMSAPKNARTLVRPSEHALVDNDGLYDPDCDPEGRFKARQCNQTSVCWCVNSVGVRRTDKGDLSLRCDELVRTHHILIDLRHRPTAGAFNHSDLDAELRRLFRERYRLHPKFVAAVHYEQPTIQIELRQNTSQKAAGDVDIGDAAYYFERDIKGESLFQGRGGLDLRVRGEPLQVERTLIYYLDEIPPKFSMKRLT

T2: Human TROP2 Protein, His Tag (Acro Biosystems) (human, UniProt P09758 27-274)
T2 construct: Soluble analyte of the Octet assay; also called TACSTD2; not shown: His tag
T2 sequence (looked up): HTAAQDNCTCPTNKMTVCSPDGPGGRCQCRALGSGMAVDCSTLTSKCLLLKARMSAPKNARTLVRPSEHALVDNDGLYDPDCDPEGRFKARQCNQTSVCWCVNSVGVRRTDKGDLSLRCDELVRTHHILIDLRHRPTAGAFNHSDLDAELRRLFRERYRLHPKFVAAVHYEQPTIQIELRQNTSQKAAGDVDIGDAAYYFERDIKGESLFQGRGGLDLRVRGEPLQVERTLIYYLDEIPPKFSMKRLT


Legend:
[1] = molecular target: T1, Human TROP2 Protein, His Tag (Acro …); assay: BLI (Octet) [1/2]
[2] = molecular target: T2, Human TROP2 Protein, His Tag (Acro …); assay: BLI (Octet) [1/2]

Binder | binding result [1] | binding result [2]
MYT12335 (antibody, V domains shown, sacituzumab VL 30, 53 -> H) VH: QVQLQQSGSELKKPGASVKVSCKASGYTFTNYGMNWVKQAPGQGLKWMGWINTYTGEPTYTDDFKGRFAFSLDTSVSTAYLQISSLKADDTAVYFCARGGFGSSYWYFDVWGQGSLVTVSS VL: DIQLTQSPSSLSASVGDRVSITCKASQDVHIAVAWYQQKPGKAPKLLIYSASHRYTGVPDRFSGSGSGTDFTLTISSLQPEDFAVYYCQQHYITPLTFGAGTKVEIK | binds | 
MYT13214 (antibody, V domains shown, Sacituzumab HC-LC pairing variant; IgG) VH: QVQLQQSGSELKKPGASVKVSCKASGYTFTNYGMNWVKQAPGQGLKWMGWINTYTGEPTYTDDFHGRFAFSLDTSVSTAYLQISSLKADDTAVYFCARGGFGSSYWYFDVWGQGSLVTVSS VL: DIQLTQSPSSLSASVGDRVSITCKASQDVSIAVAWYQQKPGKAPKLLIYSASYRYTGVPDRFSGSGSGTDFTLTISSLQPEDFAVYYCQQAYITPLTFGAGTKVEIK |  | binds
MYT13229 (antibody, V domains shown, Sacituzumab HC-LC pairing variant; IgG) VH: QVQLQQSGSELKKPGASVKVSCKASGYTFTNYGMNWVKQAPGQGLKWMGWINTYTGEPTYTDDHKGRFAFSLDTSVSTAYLQISSLKADDTAVYFCARGGFGSSYWYFDVWGQGSLVTVSS VL: DIQLTQSPSSLSASVGDRVSITCKASQDVSIAVAWYQQKPGKAPKLLIYSASYRYTGVPDRFSGSGSGTDFTLTISSLQPEDFAVYYCQQHYHTPLTFGAGTKVEIK |  | binds
MYT13228 (antibody, V domains shown, Sacituzumab HC-LC pairing variant; IgG) VH: QVQLQQSGSELKKPGASVKVSCKASGYTFTNYGMNWVKQAPGQGLKWMGWINTYTGEPTYTDHFKGRFAFSLDTSVSTAYLQISSLKADDTAVYFCARGGFGSSYWYFDVWGQGSLVTVSS VL: DIQLTQSPSSLSASVGDRVSITCKASQDVSIAVAWYQQKPGKAPKLLIYSASYRYTGVPDRFSGSGSGTDFTLTISSLQPEDFAVYYCQQHYHTPLTFGAGTKVEIK |  | binds
MYT12339 (antibody, V domains shown, sacituzumab VL 30, 93 -> H) VH: QVQLQQSGSELKKPGASVKVSCKASGYTFTNYGMNWVKQAPGQGLKWMGWINTYTGEPTYTDDFKGRFAFSLDTSVSTAYLQISSLKADDTAVYFCARGGFGSSYWYFDVWGQGSLVTVSS VL: DIQLTQSPSSLSASVGDRVSITCKASQDVHIAVAWYQQKPGKAPKLLIYSASYRYTGVPDRFSGSGSGTDFTLTISSLQPEDFAVYYCQQHYHTPLTFGAGTKVEIK | binds | 
MYT13227 (antibody, V domains shown, Sacituzumab HC-LC pairing variant; IgG) VH: QVQLQQSGSELKKPGASVKVSCKASGYTFTNYGMNWVKQAPGQGLKWMGWINTYTGEPTYTHDFKGRFAFSLDTSVSTAYLQISSLKADDTAVYFCARGGFGSSYWYFDVWGQGSLVTVSS VL: DIQLTQSPSSLSASVGDRVSITCKASQDVSIAVAWYQQKPGKAPKLLIYSASYRYTGVPDRFSGSGSGTDFTLTISSLQPEDFAVYYCQQHYHTPLTFGAGTKVEIK |  | binds
MYT12340 (antibody, V domains shown, sacituzumab VL 33, 51 -> H) VH: QVQLQQSGSELKKPGASVKVSCKASGYTFTNYGMNWVKQAPGQGLKWMGWINTYTGEPTYTDDFKGRFAFSLDTSVSTAYLQISSLKADDTAVYFCARGGFGSSYWYFDVWGQGSLVTVSS VL: DIQLTQSPSSLSASVGDRVSITCKASQDVSIAHAWYQQKPGKAPKLLIYSHSYRYTGVPDRFSGSGSGTDFTLTISSLQPEDFAVYYCQQHYITPLTFGAGTKVEIK | binds | 
MYT13213 (antibody, V domains shown, Sacituzumab HC-LC pairing variant; IgG) VH: QVQLQQSGSELKKPGASVKVSCKASGYTFTNYGMNWVKQAPGQGLKWMGWINTYTGEPTYTDDHKGRFAFSLDTSVSTAYLQISSLKADDTAVYFCARGGFGSSYWYFDVWGQGSLVTVSS VL: DIQLTQSPSSLSASVGDRVSITCKASQDVSIAVAWYQQKPGKAPKLLIYSASYRYTGVPDRFSGSGSGTDFTLTISSLQPEDFAVYYCQQAYITPLTFGAGTKVEIK |  | binds
MYT13212 (antibody, V domains shown, Sacituzumab HC-LC pairing variant; IgG) VH: QVQLQQSGSELKKPGASVKVSCKASGYTFTNYGMNWVKQAPGQGLKWMGWINTYTGEPTYTDHFKGRFAFSLDTSVSTAYLQISSLKADDTAVYFCARGGFGSSYWYFDVWGQGSLVTVSS VL: DIQLTQSPSSLSASVGDRVSITCKASQDVSIAVAWYQQKPGKAPKLLIYSASYRYTGVPDRFSGSGSGTDFTLTISSLQPEDFAVYYCQQAYITPLTFGAGTKVEIK |  | binds

The next lines start with the values.

binding result [1] | binding result [2] | Binder
 | binds | MYT13205 (antibody, V domains shown, Sacituzumab HC-LC pairing variant; IgG) VH: QVQLQQSGSELKKPGASVKVSCKASGYTFTNYGMNWVKQAPGQGLKWMGWINTYTGEPTYTDDHKGRFAFSLDTSVSTAYLQISSLKADDTAVYFCARGGFGSSYWYFDVWGQGSLVTVSS VL: DIQLTQSPSSLSASVGDRVSITCKASQDVSIAVAWYQQKPGKAPKLLIYSASYRYTGVPDRFSGSGSGTDFTLTISSLQPEDFAVYYCHQHYITPLTFGAGTKVEIK
 | binds | MYT13204 (antibody, V domains shown, Sacituzumab HC-LC pairing variant; IgG) VH: QVQLQQSGSELKKPGASVKVSCKASGYTFTNYGMNWVKQAPGQGLKWMGWINTYTGEPTYTDHFKGRFAFSLDTSVSTAYLQISSLKADDTAVYFCARGGFGSSYWYFDVWGQGSLVTVSS VL: DIQLTQSPSSLSASVGDRVSITCKASQDVSIAVAWYQQKPGKAPKLLIYSASYRYTGVPDRFSGSGSGTDFTLTISSLQPEDFAVYYCHQHYITPLTFGAGTKVEIK
binds |  | MYT12341 (antibody, V domains shown, sacituzumab VL 33, 52 -> H) VH: QVQLQQSGSELKKPGASVKVSCKASGYTFTNYGMNWVKQAPGQGLKWMGWINTYTGEPTYTDDFKGRFAFSLDTSVSTAYLQISSLKADDTAVYFCARGGFGSSYWYFDVWGQGSLVTVSS VL: DIQLTQSPSSLSASVGDRVSITCKASQDVSIAHAWYQQKPGKAPKLLIYSAHYRYTGVPDRFSGSGSGTDFTLTISSLQPEDFAVYYCQQHYITPLTFGAGTKVEIK
 | binds | MYT13206 (antibody, V domains shown, Sacituzumab HC-LC pairing variant; IgG) VH: QVQLQQSGSELKKPGASVKVSCKASGYTFTNYGMNWVKQAPGQGLKWMGWINTYTGEPTYTDDFHGRFAFSLDTSVSTAYLQISSLKADDTAVYFCARGGFGSSYWYFDVWGQGSLVTVSS VL: DIQLTQSPSSLSASVGDRVSITCKASQDVSIAVAWYQQKPGKAPKLLIYSASYRYTGVPDRFSGSGSGTDFTLTISSLQPEDFAVYYCHQHYITPLTFGAGTKVEIK
 | binds | MYT13226 (antibody, V domains shown, Sacituzumab HC-LC pairing variant; IgG) VH: QVQLQQSGSELKKPGASVKVSCKASGYTFTNYGMNWVKQAPGQGLKWMGWINTYTGEPTHTDDFKGRFAFSLDTSVSTAYLQISSLKADDTAVYFCARGGFGSSYWYFDVWGQGSLVTVSS VL: DIQLTQSPSSLSASVGDRVSITCKASQDVSIAVAWYQQKPGKAPKLLIYSASYRYTGVPDRFSGSGSGTDFTLTISSLQPEDFAVYYCQQHYHTPLTFGAGTKVEIK
 | binds | MYT13225 (antibody, V domains shown, Sacituzumab HC-LC pairing variant; IgG) VH: QVQLQQSGSELKKPGASVKVSCKASGYTFTNYHMNWVKQAPGQGLKWMGWINTYTGEPTYTDDFKGRFAFSLDTSVSTAYLQISSLKADDTAVYFCARGGFGSSYWYFDVWGQGSLVTVSS VL: DIQLTQSPSSLSASVGDRVSITCKASQDVSIAVAWYQQKPGKAPKLLIYSASYRYTGVPDRFSGSGSGTDFTLTISSLQPEDFAVYYCQQHYHTPLTFGAGTKVEIK
 | binds | MYT13211 (antibody, V domains shown, Sacituzumab HC-LC pairing variant; IgG) VH: QVQLQQSGSELKKPGASVKVSCKASGYTFTNYGMNWVKQAPGQGLKWMGWINTYTGEPTYTHDFKGRFAFSLDTSVSTAYLQISSLKADDTAVYFCARGGFGSSYWYFDVWGQGSLVTVSS VL: DIQLTQSPSSLSASVGDRVSITCKASQDVSIAVAWYQQKPGKAPKLLIYSASYRYTGVPDRFSGSGSGTDFTLTISSLQPEDFAVYYCQQAYITPLTFGAGTKVEIK
 | binds | MYT13215 (antibody, V domains shown, Sacituzumab HC-LC pairing variant; IgG) VH: QVQLQQSGSELKKPGASVKVSCKASGYTFTNYGMNWVKQAPGQGLKWMGWINTYTGEPTYTDDFKHRFAFSLDTSVSTAYLQISSLKADDTAVYFCARGGFGSSYWYFDVWGQGSLVTVSS VL: DIQLTQSPSSLSASVGDRVSITCKASQDVSIAVAWYQQKPGKAPKLLIYSASYRYTGVPDRFSGSGSGTDFTLTISSLQPEDFAVYYCQQAYITPLTFGAGTKVEIK
 | binds | MYT13207 (antibody, V domains shown, Sacituzumab HC-LC pairing variant; IgG) VH: QVQLQQSGSELKKPGASVKVSCKASGYTFTNYGMNWVKQAPGQGLKWMGWINTYTGEPTYTDDFKHRFAFSLDTSVSTAYLQISSLKADDTAVYFCARGGFGSSYWYFDVWGQGSLVTVSS VL: DIQLTQSPSSLSASVGDRVSITCKASQDVSIAVAWYQQKPGKAPKLLIYSASYRYTGVPDRFSGSGSGTDFTLTISSLQPEDFAVYYCHQHYITPLTFGAGTKVEIK
 | binds | MYT13224 (antibody, V domains shown, Sacituzumab HC-LC pairing variant; IgG) VH: QVQLQQSGSELKKPGASVKVSCKASGYTFTNHGMNWVKQAPGQGLKWMGWINTYTGEPTYTDDFKGRFAFSLDTSVSTAYLQISSLKADDTAVYFCARGGFGSSYWYFDVWGQGSLVTVSS VL: DIQLTQSPSSLSASVGDRVSITCKASQDVSIAVAWYQQKPGKAPKLLIYSASYRYTGVPDRFSGSGSGTDFTLTISSLQPEDFAVYYCQQHYHTPLTFGAGTKVEIK
binds |  | MYT12336 (antibody, V domains shown, sacituzumab VL 30, 89 -> H) VH: QVQLQQSGSELKKPGASVKVSCKASGYTFTNYGMNWVKQAPGQGLKWMGWINTYTGEPTYTDDFKGRFAFSLDTSVSTAYLQISSLKADDTAVYFCARGGFGSSYWYFDVWGQGSLVTVSS VL: DIQLTQSPSSLSASVGDRVSITCKASQDVHIAVAWYQQKPGKAPKLLIYSASYRYTGVPDRFSGSGSGTDFTLTISSLQPEDFAVYYCHQHYITPLTFGAGTKVEIK
